# Results: the Human Domainome abundance scans (Beltran et al. 2025)
# ± gives the uncertainty stated by the source.
# B1: Homeobox expressed in ES cells 1, residues 110 to 165; numbered along this chain, Q9UBX0 (parent)
# chain: RPRTAFTQNQIEVLENVFRVNCYPGIDIREDLAQKLNLEEDRIQIWFQNRRAKLKR
# Variants of: B1
# Assay: abundance fitness (aPCA) (normalised: wild type 0, dead -1); higher = more abundant; growth selection in yeast, the domain comes from the species named
# Settings: Homo sapiens
row,Variant,abundance fitness
1,Q44M,-0.12 ± 0.26
2,Q44F,-0.385 ± 0.28
3,Q44Y,-0.582 ± 0.33
4,Q44A,0.087 ± 0.14
5,Q44N,-0.059 ± 0.26
6,Q44V,-0.161 ± 0.12
7,Q44E,-0.532 ± 0.33
8,Q44L,-0.079 ± 0.11
9,Q44P,-0.982 ± 0.31
10,Q44C,0.033 ± 0.085
11,Q44S,-0.129 ± 0.08
12,Q44T,0.038 ± 0.1
13,Q44H,0.35 ± 0.18
14,Q44K,0.179 ± 0.17
15,Q44G,-0.206 ± 0.12
16,Q44I,0.061 ± 0.12
17,Q44D,-0.007 ± 0.17
18,Q44W,-0.277 ± 0.23
19,E39D,0.333 ± 0.33
20,E39G,-0.154 ± 0.098
21,E39S,0.02 ± 0.082
22,E39N,-0.241 ± 0.26
23,E39R,-0.34 ± 0.11
24,E39M,-0.562 ± 0.15

row,Variant,abundance fitness
1,E39A,-0.144 ± 0.18
2,E39V,-0.619 ± 0.12
3,E39Y,-0.675 ± 0.12
4,E39L,-0.507 ± 0.12
5,E39C,-0.104 ± 0.088
6,E39W,-0.752 ± 0.23
7,E39Q,-0.185 ± 0.15
8,E39K,-0.476 ± 0.45
9,E39I,-1.06 ± 0.36
10,R29K,-0.691 ± 0.28
11,R29V,0.011 ± 0.096
12,R29P,-0.708 ± 0.1
13,R29F,-0.198 ± 0.18
14,R29Q,-0.299 ± 0.32
15,R29Y,-0.284 ± 0.18
16,R29G,-0.704 ± 0.17
17,R29A,-0.093 ± 0.12
18,R29N,-0.864 ± 0.47
19,R29W,-0.18 ± 0.15
20,R29E,-1.23 ± 0.44
21,R29I,-0.2 ± 0.17
22,R29L,-0.222 ± 0.15
23,R29S,-0.709 ± 0.17
24,R29T,0.183 ± 0.16

row,Variant,abundance fitness
1,R29C,-0.019 ± 0.13
2,R29M,0.303 ± 0.33
3,R29D,-0.749 ± 0.22
4,I45C,0.196 ± 0.14
5,I45T,0.114 ± 0.11
6,I45E,0.079 ± 0.13
7,I45G,-0.031 ± 0.083
8,I45W,0.444 ± 0.15
9,I45H,-0.166 ± 0.12
10,I45L,-0.026 ± 0.1
11,I45K,0.193 ± 0.19
12,I45D,0.052 ± 0.2
13,I45N,0.166 ± 0.2
14,I45R,0.033 ± 0.099
15,I45Q,0.108 ± 0.069
16,I45M,-0.049 ± 0.097
17,I45F,0.157 ± 0.21
18,D41Q,-0.012 ± 0.21
19,D41P,-0.044 ± 0.15
20,D41E,0.08 ± 0.1
21,D41R,0.026 ± 0.073
22,D41C,-0.081 ± 0.15
23,D41W,0.055 ± 0.15
24,D41I,-0.027 ± 0.17

row,Variant,abundance fitness
1,D41M,-0.174 ± 0.14
2,D41K,-0.174 ± 0.23
3,D41N,0.665 ± 0.18
4,D41S,0.115 ± 0.11
5,D41G,-0.171 ± 0.094
6,D41F,-0.139 ± 0.12
7,D41H,-0.039 ± 0.31
8,D41V,-0.095 ± 0.13
9,D41T,0.023 ± 0.11
10,L36G,-0.86 ± 0.15
11,L36V,-1.01 ± 0.21
12,L36R,-0.984 ± 0.19
13,L36A,-1.01 ± 0.36
14,L36M,-0.11 ± 0.34
15,L36S,-0.855 ± 0.34
16,L36F,0.221 ± 0.2
17,L36W,-0.132 ± 0.097
18,L36C,-0.508 ± 0.31
19,L36H,-0.712 ± 0.13
20,L36K,-0.931 ± 0.36
21,L36E,-0.924 ± 0.34
22,L36D,-0.862 ± 0.3
23,G25E,-0.065 ± 0.14
24,G25C,-0.282 ± 0.25

row,Variant,abundance fitness
1,G25V,-1.11 ± 0.38
2,G25T,-0.027 ± 0.12
3,G25P,0.187 ± 0.13
4,G25H,0.151 ± 0.25
5,G25Y,-0.741 ± 0.1
6,G25M,-0.688 ± 0.21
7,G25A,-0.079 ± 0.16
8,G25W,-0.755 ± 0.11
9,G25K,0.11 ± 0.19
10,G25S,-0.106 ± 0.16
11,G25Q,-0.744 ± 0.4
12,G25L,-0.874 ± 0.28
13,R42V,0.135 ± 0.072
14,R42Q,0.351 ± 0.3
15,R42H,-0.05 ± 0.077
16,R42Y,0.037 ± 0.36
17,R42T,0.257 ± 0.14
18,R42L,-0.156 ± 0.16
19,R42W,0.065 ± 0.22
20,R42G,-0.399 ± 0.11
21,R42K,0.184 ± 0.3
22,R42C,-0.03 ± 0.12
23,R42D,-0.361 ± 0.25
24,R42N,0.049 ± 0.15

row,Variant,abundance fitness
1,R42I,0.055 ± 0.3
2,R42S,0.096 ± 0.078
3,R42E,0.255 ± 0.2
4,R42A,0.076 ± 0.11
5,N37W,-0.863 ± 0.47
6,N37G,0.093 ± 0.098
7,N37E,-0.138 ± 0.13
8,N37P,-0.051 ± 0.23
9,N37S,-0.459 ± 0.22
10,N37T,-0.258 ± 0.12
11,N37K,-0.032 ± 0.079
12,N37I,-0.431 ± 0.38
13,N37M,-0.613 ± 0.36
14,N37D,-0.151 ± 0.31
15,N37F,-0.195 ± 0.23
16,N37Q,-0.189 ± 0.085
17,N37H,-0.343 ± 0.3
18,N37C,-0.18 ± 0.065
19,N37L,-0.312 ± 0.13
20,N37Y,-0.634 ± 0.15
21,E30P,-0.781 ± 0.41
22,E30N,0.514 ± 0.16
23,E30C,-0.063 ± 0.091
24,E30H,0.234 ± 0.15

row,Variant,abundance fitness
1,E30V,-0.186 ± 0.073
2,E30W,-0.002 ± 0.2
3,E30K,0.169 ± 0.28
4,E30Y,-0.544 ± 0.33
5,E30G,-0.131 ± 0.083
6,E30F,0.048 ± 0.17
7,E30R,0.196 ± 0.1
8,E30L,0.134 ± 0.083
9,E30I,0.099 ± 0.12
10,E30M,-0.189 ± 0.23
11,E30S,-0.209 ± 0.15
12,E30D,-0.18 ± 0.18
13,E30A,-0.023 ± 0.1
14,D27Q,0.203 ± 0.23
15,D27C,-0.155 ± 0.081
16,D27N,0.034 ± 0.38
17,D27G,-0.02 ± 0.07
18,D27K,-0.185 ± 0.16
19,D27E,0.075 ± 0.091
20,D27W,-0.526 ± 0.18
21,D27H,-0.503 ± 0.38
22,D27S,0.233 ± 0.091
23,D27A,-0.259 ± 0.15
